From the nanobody polyreactivity screen of Harvey et al. (2022)

Experiment: yeast display, Sf9 membrane polyspecificity reagent, FACS + sequencing; frameworks hold sequencing errors
Summary of the method: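 Nanobodies came from a synthetic yeast display library in Saccharomyces cerevisiae BJ5465, induced with galactose for 36–48 hours and stained for 1 hour at 4 °C with 10% biotinylated, detergent-solubilized Sf9 membrane reagent. Cells were enriched on streptavidin microbeads and then FACS-sorted, with low and high (top ~1%) gates set on anti-HA fluorescence for expression and streptavidin fluorescence for reagent binding. Each polyreactivity label reflects the gate a clone came from. Genes were amplified by colony PCR, sequenced by MiSeq 2 × 250 and filtered by CDR length.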

Sequence | polyreactivity (PSR sort gate)
QVQLVESGGGLVQAGGSLRLSCAASGRIFIGYAMGWYRQAPGKERELVAGISQRGGRTYYADSVKGRFTISRDNAKNTVYLQMNSLKPEDTAVYYCNKRFSLGYRGGYWGQGTQVTVSS | high polyreactivity
QVQLVESGGGLVQAGGSLRLSCAASGRIFINNAMGWYRQAPGKEREFVAAITSGGRTYYADSVKGRFTISRDNAKNTVYLQMNSLKPEDTAVYYCAARYYRQYTRHYGYGYWGQGTQVTVSS | high polyreactivity
QVQLVESGGGLVQAGGSLRLSCAASGRIFIPYALGWYRQAPGKERELVAAISYRGGSTYYADSVKGRFTISRDNAKNTVYLQMNSLKPEDTAVYYCANYDYWGQGTQVTVSS | high polyreactivity
QVQLVESGGGLVQAGGSLRLSCAASGRIFIRNAMGWYRQAPGKERELVAAITQSGGSTYYADSVKGRFTISRDNAKNTVYLQMNSLKPEDTAVYYCAADGDNPYLHEEDYWGQGTQVTVSS | high polyreactivity
QVQLVESGGGLVQAGGSLRLSCAASGRIFIRNAMGWYRQAPGTERELVAAITSDGITYYADSVKGRFTISRDNATNTVYLQMNSLKPEDTAVYYCAKVGGWFSNLFIPRYREYNYWGQGTQVTVSP | low polyreactivity
QVQLVESGGGLVQAGGSLRLSCAASGRIFIRNTMVWYRQAPGKERELVADISWRGGSTYYADSVKGRFTISRDNAKNTVYLEMNSLKPEDTAVYYSAAVVRSPAYDYWGQGTQVTVSS | high polyreactivity
QVQLVESGGGLVQAGGSLRLSCAASGRIFIRYAMGWYRQAPGKERELVASISRNGGTTYYADSVKGRFTISRDNAQNTVYLQMNSLKPEDTAVYYCNTVHRSVDKAGYDYWGQGTQVTVSS | high polyreactivity
QVQLVESGGGLVQAGGSLRLSCAASGRIFISYTMGLYRHAPGKERELVAGIDSSGTSTYYADSVKGRFTISRDNAKNTVYLQMNRLKPEDTAVYYCIVVANWKDTSTELDYWGQGTQVTVSS | low polyreactivity
QVQLVESGGGLVQAGGSLRLSCAASGRIFIYNAMGWYRQAPGKEREFVAAISSSGGSTYYADSVKGRFTISRDNAKNTVYLQMNSLKPEDTAVYYCAAGGWPYSGGLFFQPNYDYWGQGTQVTVSS | low polyreactivity
QVQLVESGGGLVQAGGSLRLSCAASGRIFIYNVMGWYRQAPGKERELVATISTGGTTNYADSVKGRFTISRDNAKNTVYLQMNSLKPEDTAVYYCNRGSGYWYLPAVKYDHWGQGTQVTVSS | low polyreactivity
QVQLVESGGGLVQAGGSLRLSCAASGRIFIYYTMGWYRQAPGKEREFVAAITYSGGSTRYADSVKGRFTISRDNAKNTVYLQMNSLKPEDTAVYYCAAKFSVRRGFDYWGQGTQVTVSS | low polyreactivity
QVQLVESGGGLVQAGGSLRLSCAASGRIFKAYAMGWSRQAPGKERELVAAITSTGSTYYADSVKGRFTISRDNAKNTVYLQMNSLKPEDTAVYYCNAVRYLEYDWGQGTQVTVSS | high polyreactivity
QVQLVESGGGLVQAGGSLRLSCAASGRIFKGYAIGWYRLAPGKERELVASITWRGGTTYYADSVKGRFTISRDNAKNTVYLQMNSLKPEDTAVYYCATTRYPRSYQEFGYWGQGTQVTVSS | high polyreactivity
QVQLVESGGGLVQAGGSLRLSCAASGRIFKIYAMGWYRQAPGKERELVASISWSGGRTYYADSVKGRFTISRDNAKNTVYLQMNSLKPEDTAVYYCAATFSYSSYIYDYWGQGTQVTVSS | high polyreactivity
QVQLVESGGGLVQAGGSLRLSCAASGRIFKIYAMGWYRQAQGKERELVAAISRGVRTYYADSVKGRFTISRDNAKNTVYLQMNSLKPEDTAVYYCAADLLISPEFYYWGQGTQVTVSS | high polyreactivity
QVQLVESGGGLVQAGGSLRLSCAASGRIFKKNAMGWYRQAPGKERELVADINWTGGSTYYADSVKGRFTISRDYAKNTVDLQMNSLKPEDTAVYYCAVGVYPSYRGTTFSTRRDYWGQGTQVTVSS | low polyreactivity
QVQLVESGGGLVQAGGSLRLSCAASGRIFKLYAMGWYRQAPGKERELVAAITRRGGSTSYADSVKGRFTISRDNAKNTVYLQMNSLKPEDTAVYYCNARSSETWHGDYWGQGTQVTVSS | high polyreactivity
QVQLVESGGGLVQAGGSLRLSCAASGRIFKNNAMGWYRQAPGKEREFVAAISSIGGRTYYADSVKGRFTISRDNAKHTVYLQMNSLKPEDTAVYYCAARGYTGGLWYDYWGQRTQVTVSS | high polyreactivity
QVQLVESGGGLVQAGGSLRLSCAASGRIFKPNAMGWYRQAPGKERELVASITSRGTSTYYADSVKGRFTISRDNAKNTVYLQMNSLKPEDTAVYYCAARPIHYPPYYYWGQGTQVTVSS | high polyreactivity
QVQLVESGGGLVQAGGSLRLSCAASGRIFKPYAMGWYRQAPGKERELVASISRRGGSTYYADSVKGRFTISRDNAKNTVYLQMNSLKPEDTAVYYCNASGTYISLGYDYWGQGTQVTVSS | high polyreactivity
QVQLVESGGGLVQAGGSLRLSCAASGRIFKRNAMGWYRQAPGKDTELVAGISSSGGSTYYADSVKGRFTISRDNAKNTVYLQMNSLKPEDTAVYYCAAVGYGLRPSYDYWGQGTQVTVSS | high polyreactivity

Sequence | polyreactivity (PSR sort gate)
QVQLVESGGGLVQAGGSLRLSCAASGRIFKRNAMGWYRQAPGKERELVAAISSRVGRTYYADSVKGRFTISRDNAKNTVYLQMNSLKPEDTAVYYCAADTYTYYDYDYWGQGTQVTVSS | high polyreactivity
QVQLVESGGGLVQAGGSLRLSCAASGRIFKRYDMGWYRQAPGKERELVAAINRSGGSTYYADSVKGRFTISRDNAKNTVYLQMNSLKPEDTAVYYCAARYRYDGRYDYWGQGTQVTVSS | high polyreactivity
QVQLVESGGGLVQAGGSLRLSCAASGRIFKRYTMGWYRQAPGKERELVAGITFSGGSTYYADSVKGRFTISRDNAKNTVYLQMNSLKPEDTAVYDCNARVPPQGWGPWKAFDYWGQGTQVTVSS | low polyreactivity
QVQLVESGGGLVQAGGSLRLSCAASGRIFKSYVMGWYRQAPGKERELVAAISITGGSTYYADSVKGRFTISRDNAKNTVYLQMNSLKPEDTAVYYCAAEWFGSVQPAYDYWGQGTQVTVSS | high polyreactivity
QVQLVESGGGLVQAGGSLRLSCAASGRIFKTNAMGWDRQGPGKERELVAGITGRSGSSYYADSVKGRFTISRDIAMNTVYLQMNSLKPEDTAVYYCAAPLYGRYSYGYWGQGNQVTVSS | high polyreactivity
QVQLVESGGGLVQAGGSLRLSCAASGRIFKVNAMGWYRQAPGKERELVAAITRGGRTYADSVKGRFTISRDNAKNTVYLQMNSLKPEDTAVYYCAADVLEGWFKRYYYWGQGTQVTVSS | high polyreactivity
QVQLVESGGGLVQAGGSLRLSCAASGRIFKVYAMGWYRQAPGKERELVAAITSRGGSTYYADSVKGRFTISRDNAKNTVYLQMNSLKPEDTAVYYCAAARGLPSNKYYYWGQGTQVTVSS | high polyreactivity
QVQLVESGGGLVQAGGSLRLSCAASGRIFKVYAMGWYRQAPGKERELVATISRGGSTYYADSVKGRFTISRDNAKNTVYLQMNSLKPEDTAVYYCAKQRERYYWFGAWSYDYWGQGTQLTVSS | low polyreactivity
QVQLVESGGGLVQAGGSLRLSCAASGRIFKYHAMGWYRQAPGKERELVAAITWGGGGTYYADSVKGRFTISRDNAKNTVYLQMNSLIPEDTAVYYCNTERWGTGKLRYNYWGPGTQVTVSS | low polyreactivity
QVQLVESGGGLVQAGGSLRLSCAASGRIFKYNAMGWYRQAPGKEREFVARITSGGRTYYADSVKGRFTISRDNAKNTVYLQMNSLKPEDTAVYYCNAEDVRYWVRGYRMGYWGQGTQVTVSS | high polyreactivity
QVQLVESGGGLVQAGGSLRLSCAASGRIFKYYAKGWYRQAPGKERELVAAISWSGGRTYYADSVKGRFTISRDNAKTTVYLQMNSLKPEDTAVYDCNAASLRYSYTLFDSWGQGTQVTVSS | high polyreactivity
QVQLVESGGGLVQAGGSLRLSCAASGRIFKYYAMGWYRQAPGKERELVAAISRSGGSTYYADSVKGRFSISRDNAKNTVYLQMNSLKPEDTAVYYCAAGYKQATYDRIRTAYGYWGQGTQVTVSS | high polyreactivity
QVQLVESGGGLVQAGGSLRLSCAASGRIFKYYAMGWYRQAPGKERELVAAITWSGGNTYYADSVKGRFTISRDNAKNTVYLQMNSLKPEDTAVYYCAREVYYPIRQYNYWGQGTQVTVSS | high polyreactivity
QVQLVESGGGLVQAGGSLRLSCAASGRIFKYYTMGWSRQAPGKERELVAAISRDDSTNYADSVKGRFTISRDNAKNTVYLQMNSLKPEDTAVYYCAKGYHQYAGFYYWGQGTQVTVSS | high polyreactivity
QVQLVESGGGLVQAGGSLRLSCAASGRIFKYYVMGWYRQAPGKEREFVAAISGRGGRTYYADSVKGRFTISRDNAKNTVYLQMNSLKPEDTAVYYCATERQERGPLGYNYWGLGTQVTVSS | high polyreactivity
QVQLVESGGGLVQAGGSLRLSCAASGRIFKYYVMGWYRQAPGKESELVAAISSGSGSTYYADSVKGRFTISRDNAKNTVYLQMNSLKPEDTAVYYCNALSSWRRTYGSRYDYWGQGTQVTVSS | high polyreactivity
QVQLVESGGGLVQAGGSLRLSCAASGRIFLDNTMGGYRQATGKERELVATISSGASTNYADSVKGRFTISRDNAKNTVYLQMNSLKPEDTGVYYCNARVGGYPLWYKKYYYWGQGTQVNVSS | low polyreactivity
QVQLVESGGGLVQAGGSLRLSCAASGRIFLFYAMGWYRQAPGKERELVAAISIGSTDYADSVKGRFTISRDNAKNTVYLQMNSLKPEDTAVYYCAADFIITYDEYDYWGQGTQVTVSS | high polyreactivity
QVQLVESGGGLVQAGGSLRLSCAASGRIFLGNAMGWYRQAPGKERELVAAIDASGGSTYYADSVKGRFTISRDNAKNTVYLQMNSLKPEDTAVYYCNAEPRYYSGGHGYDYWGQGTQVTVSS | low polyreactivity
QVQLVESGGGLVQAGGSLRLSCAASGRIFLGNAMGWYRQAPGNERELVADITTDGSTYYADSVKGRFTISRDNAKNTVYLQMNSLKPEVTAVYYCAAGEHPSFRSSYKYDYWGQGTQVTVSS | low polyreactivity
